In this test the target is NP‐WT S nanoparticles (nanoparticles coated with WT spike proteins) (SARS-CoV-2). Kind of test: SPR. On the technique in general: SPR reads the build-up and loss of mass on a sensor chip optically.

B1: P5‐1C8 IgG (full‐length) (antibody, V domains shown)
VH: EVQLVESGGGLIQPGGSLRLSCAASEIIVSRNYMNWVRQAPGKGLEWVSVIYSGGSTFYADSVKGRFTISRDNSENTLYLQMNSLRAEDTAVYYCARGYGDYYFDYWGRGTLVTVSS
VL: not shown
For orientation: koff means the first-order rate constant of dissociation. Lower therefore signals a long-lived complex. Molecule B1 came in with a koff of 2.19e-05 s⁻¹.
